Measurements from US20230235004A1 (published 2023).
Residue numbers refer to the chain shown, from its start.

T1: human MAdCAM protein (human, UniProt Q13477 19-317, limits assumed)
T1 construct: also called soluble monomeric human MAdCAM; recombinant human MAdCAM
T1 sequence (looked up): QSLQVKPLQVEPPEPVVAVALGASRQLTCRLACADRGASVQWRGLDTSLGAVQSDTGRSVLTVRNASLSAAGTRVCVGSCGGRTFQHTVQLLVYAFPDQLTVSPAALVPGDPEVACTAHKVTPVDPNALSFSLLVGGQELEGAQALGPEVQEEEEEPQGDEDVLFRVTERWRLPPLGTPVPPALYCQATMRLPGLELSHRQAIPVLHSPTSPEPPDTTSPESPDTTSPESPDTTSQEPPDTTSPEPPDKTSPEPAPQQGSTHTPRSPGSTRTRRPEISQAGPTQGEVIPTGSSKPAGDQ

T2: recombinant mouse MAdCAM-1 (mouse, UniProt Q61826 22-364, limits assumed)
T2 construct: also called mMAdCAM-1
T2 sequence (looked up): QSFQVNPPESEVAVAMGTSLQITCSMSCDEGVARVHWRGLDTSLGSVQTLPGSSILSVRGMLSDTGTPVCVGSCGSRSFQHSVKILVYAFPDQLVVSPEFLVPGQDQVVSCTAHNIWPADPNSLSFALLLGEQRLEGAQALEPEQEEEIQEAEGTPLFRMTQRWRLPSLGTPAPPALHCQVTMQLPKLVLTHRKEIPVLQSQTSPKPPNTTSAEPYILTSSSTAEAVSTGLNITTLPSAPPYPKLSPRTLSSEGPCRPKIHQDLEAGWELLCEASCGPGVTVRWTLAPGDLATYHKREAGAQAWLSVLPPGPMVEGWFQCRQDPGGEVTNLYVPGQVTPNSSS

T3: human MAdCAM expressed on cells (human, UniProt Q13477 19-382)
T3 construct: whole, on cells
T3 sequence (looked up): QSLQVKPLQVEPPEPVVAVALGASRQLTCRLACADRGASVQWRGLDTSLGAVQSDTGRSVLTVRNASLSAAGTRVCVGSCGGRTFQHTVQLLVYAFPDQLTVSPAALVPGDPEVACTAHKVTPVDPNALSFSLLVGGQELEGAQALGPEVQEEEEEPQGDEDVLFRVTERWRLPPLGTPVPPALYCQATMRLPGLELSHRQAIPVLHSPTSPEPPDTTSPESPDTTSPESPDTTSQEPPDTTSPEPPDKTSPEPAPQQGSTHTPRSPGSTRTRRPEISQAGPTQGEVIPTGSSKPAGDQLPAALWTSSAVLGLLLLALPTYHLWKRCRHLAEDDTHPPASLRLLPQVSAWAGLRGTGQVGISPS

T4: mouse MAdCAM expressed on cells (mouse, UniProt Q61826 22-405)
T4 construct: whole, on cells
T4 sequence (looked up): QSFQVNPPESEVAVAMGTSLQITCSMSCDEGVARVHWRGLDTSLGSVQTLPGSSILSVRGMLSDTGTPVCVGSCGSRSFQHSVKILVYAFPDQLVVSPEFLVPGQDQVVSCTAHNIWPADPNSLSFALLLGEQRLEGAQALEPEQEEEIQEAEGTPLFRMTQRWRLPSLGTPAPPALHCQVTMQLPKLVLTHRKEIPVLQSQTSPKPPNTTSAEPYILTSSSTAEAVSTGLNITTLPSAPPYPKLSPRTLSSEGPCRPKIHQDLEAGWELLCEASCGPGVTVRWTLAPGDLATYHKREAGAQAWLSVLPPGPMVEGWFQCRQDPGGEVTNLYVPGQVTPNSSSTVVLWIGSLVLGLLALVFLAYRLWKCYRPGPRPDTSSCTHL

B1: MAdCAM Antibody Table 2 clone 83 (antibody, V domains shown)
VH: EVQLLESGGGLVQPGGSLRLSCAASGFTFSSYWMHWVRQAPGKGLEWVAAISYDGKYKDYEDSVKGRFTISRDNSKNTLYLQMNSLRAEDTAVYYCARENKQWLASFDYWGQGTLVTVSS
VL: DIQMTQSPSSLSASVGDRVTITCQASQDISNFVNWYQQKPGKAPKLLIYAANLRSGVPSRFSGSGSGTDFTLTISSLQPEDFATYYCQQANSFPVTFGPGTKVDIK
notes: IgG format
B2: MAdCAM Antibody Table 2 clone 63 (antibody, V domains shown)
VH: EVQLLESGGGLVQPGGSLRLSCAASGFTFNNYGMNWVRQAPGKGLEWVSRINSDGSSTSYADSVKGRFTISRDNSKNTLYLQMNSLRAEDTAVYYCARGAYYYYYMDVWGQGTLVTVSS
VL: EIVMTQSPATLSVSPGERATLSCRASQSVSGSYLAWYQQKPGQAPRLLIYATSSRASGIPARFSGSGSGTEFTLTISSLQSEDFAVYYCQQYYSGLTFGQGTKVEIK
notes: IgG format
B3: MAdCAM Antibody Table 2 clone 55 (antibody, V domains shown)
VH: EVQLLESGGGLVQPGGSLRLSCAASGFTFDDFAMHWVRQAPGKGLEWVSGISGNGDSRYYADSVKGRFTISRDNSKNTLYLQMNSLRAEDTAVYYCARDASYGGNYGMDVWGQGTTVTVSS
VL: DIQMTQSPSSLSASVGDRVTITCQASQDIRNYLNWYQQKPGKAPKLLIYKASTLESGVPSRFSGSGSGTDFTLTISSLQPEDFATYYCQQANSFPLTFGPGTKVDIK
notes: IgG format
B4: MAdCAM Antibody Table 2 clone 36 (antibody, V domains shown)
VH: EVQLLESGGGLVQPGGSLRLSCAASGFTFDDYALHWVRQAPGKGLEWVSAISGDGRSTTYADSVKGRFTISRDNSKNTLYLQMNSLRAEDTAVYYCARDGTVNGATGWFDPWGQGTLVTVSS
VL: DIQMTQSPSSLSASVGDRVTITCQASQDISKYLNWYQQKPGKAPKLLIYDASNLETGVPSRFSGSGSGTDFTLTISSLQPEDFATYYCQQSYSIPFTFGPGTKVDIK
notes: IgG format
B5: MAdCAM Antibody Table 2 clone 30 (antibody, V domains shown)
VH: EVQLLESGGGLVQPGGSLRLSCAASGFTFSSYAMHWVRQAPGKGLEWVSGISGSGGSAYYADSVKGRFTISRDNSKNTLYLQMNSLRAEDTAVYYCATSQAPVDYYYYGMDVWGQGTTVTVSS
VL: DIQMTQSPSSLSASVGDRVTITCRASQSISSWLAWYQQKPGKAPKLLIYAASNLQRGVPSRFSGSGSGTDFTLTISSLQPEDFATYYCQQSYSIPITFGQGTKVEIK
notes: IgG format
B6: MAdCAM Antibody Table 2 clone 82 (antibody, V domains shown)
VH: QVQLVQSGAEVKKPGASVKVSCKASGYTFTRHWIHWVRQAPGQGLEWMGWINVKTGGAGYAQKFQGRVTMTRDTSTSTVYMELSSLRSEDTAVYYCARESSGWYGTDVWGQGTTVTVSS
VL: B5 VL with V19A, S31N, W32Y, N53S, R56S, Y92N, I94F, I96L, Q100G
notes: IgG format
B7: MAdCAM Antibody Table 2 clone 60 (antibody, V domains shown)
VH: EVQLLESGGGLVQPGGSLRLSCAASGFTFSDHGMHWVRQAPGKGLEWVSVIYGGESTYYADSVKGRFTISRDNSKNTLYLQMNSLRAEDTAVYYCARDPAVAGGGIFDYWGQGTLVTVSS
VL: B5 VL with S28G, S31N, W32Y, A50D, Q55E, R56T, I94T, P95C, I96Y, V104L
notes: IgG format
B8: MAdCAM Antibody Table 2 clone 76 (antibody, V domains shown)
VH: EVQLLESGGGLVQPGGSLRLSCAASGFTFDDYTMHWVRQAPGKGLEWVSDISGSGGSTYYADSVKGRFTISRDNSKNTLYLQMNSLRAEDTAVYYCAKDVVVAGTPLHFDYWGQGTLVTVSS
VL: DIQMTQSPSSLSASVGDRVTITCQASQDISNYLNWYQQKPGKAPKLLIYAASYLQSGVPSRFSGSGSGTDFTLTISSLQPEDFATYYCQQAHNYPITFGQGTRLEIK
notes: IgG format
B9: MAdCAM Antibody Table 2 clone 84 (antibody, V domains shown)
VH: QVQLVQSGAEVKKPGASVKVSCKASGGTFSSSAISWVRQAPGQGLEWMGWISAYNGYTNYAQKFQGRVTMTRDTSTSTVYMELSSLRSEDTAVYYCASRVHSGGSYPDDYWGQGTLVTVSS
VL: B8 VL with Q27E, D28H, S30Y, Y53S, A91T, H92D, N93S, Y94I, R103K, L104V
notes: IgG format
B10: MAdCAM Antibody Table 2 clone 58 (antibody, V domains shown)
VH: EVQLLESGGGLVQPGGSLRLSCAASGFSVSSNYMSWVRQAPGKGLEWVAGISYDGSSKPYADSVKGRFTISRDNSKNTLYLQMNSLRAEDTAVYYCARSRGIAARPLQHWGQGTLVTVSS
VL: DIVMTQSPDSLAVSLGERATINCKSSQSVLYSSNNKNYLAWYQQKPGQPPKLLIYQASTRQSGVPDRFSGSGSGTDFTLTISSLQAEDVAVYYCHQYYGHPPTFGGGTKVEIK
notes: IgG format
B11: MAdCAM Antibody Table 2 clone 78 (antibody, V domains shown)
VH: QVQLVQSGAEVKKPGSSVKVSCKASGGTFSSYAISWVRQAPGQGLEWMGWMEPHTGNTRYAQKFQGRVTITADESTSTAYMELSSLRSEDTAVYYCAKGGFSWFDPWGQGTLVTVSS
VL: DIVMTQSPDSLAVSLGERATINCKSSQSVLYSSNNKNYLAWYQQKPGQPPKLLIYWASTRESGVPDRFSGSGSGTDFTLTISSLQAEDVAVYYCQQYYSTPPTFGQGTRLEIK
notes: IgG format
B12: MAdCAM Antibody Table 2 clone 28 (antibody, V domains shown)
VH: EVQLLESGGGLVQPGGSLRLSCAASGFTFSSYAMSWVRQAPGKGLEWVSYISSSSTYTNYADSVKGRFTISRDNSKNTLYLQMNSLRAEDTAVYYCARANSSSWYDWYFDLWGQGTLVTVSS
VL: not shown
notes: IgG format
B13: MAdCAM Antibody Table 2 clone 29 (antibody, V domains shown)
VH: B12 VH with A33Q
VL: not shown
notes: IgG format
B14: MAdCAM Antibody Table 2 clone 14 (antibody, V domains shown)
VH: QVQLVQSGAEVKKPGSSVKVSCKASGYTFTNYYMHWVRQAPGQGLEWMGGIIPIVDGVKYAQKFQGRVTITADESTSTAYMELSSLRSEDTAVYYCAKGQFTGNYYYGMDYWGQGTLVTVSS
VL: DIQMTQSPSSLSASVGDRVTITCQANQDISNYLNWYQQKPGKAPKLLIYRASKLEAGVPSRFSGSGSGTDFTLTISSLQPEDFATYYCQQSSEIPYSFGQGTKVEIK
notes: IgG format
B15: MAdCAM Antibody Table 2 clone 6 (antibody, V domains shown)
VH: EVQLLESGGGLVQPGGSLRLSCAASGFTFNNYAFHWVRQAPGKGLEWVSRINSYGTSTTYADSVKGRFTISRDNSKNTLYLQMNSLRAEDTAVYYCAREGPVAGYWYFDLWGQGTLVTVSS
VL: B5 VL with S28I, S30G, S31T, W32N, A50G, N53S, R56S, S93R, I94L, I96F
notes: IgG format
B16: MAdCAM antibody Table 1 clone 15 (scFv)
scFv: QVQLVQSGAEVKKPGSSVKVSCKASGYTFTNYYMHWVRQAPGQGLEWMGGIIPIVDRVKYAQKFQGRVTITADESTSTAYMELSSLRSEDTAVYYCAKGRYTVNYYYGMDVWGQGTTVTVSSGGGGSGGGGSGGGGSGGGGSDIQMTQSPSSLSASVGDRVTITCQANQDISNYLNWYQQKPGKAPKLLIYRASKLEAGVPSRFSGSGSGTDFTLTISSLQPEDFATYYCQQSSEIPYSFGQGTKLEIK

Biological target: T1, human MAdCAM protein
Assay: Octet

binding result	Binder
binds	B1
binds	B2
binds	B3
binds	B4
binds	B5
binds	B6
binds	B7
binds	B8
binds	B9
binds	B10
binds	B11

Biological target: T2, recombinant mouse MAdCAM-1
Assay: Octet

binding result	Binder
no binding	B12
no binding	B13
no binding	B14
no binding	B15

Biological target: T3, human MAdCAM expressed on cells
Assay: cell binding

binding result	Binder
binds	B16

Biological target: T4, mouse MAdCAM expressed on cells
Assay: cell binding

binding result	Binder
no binding	B16

Biological target: T3, human MAdCAM expressed on cells
Assay: cell binding
Remark: another data set of the same source

binding result	Binder
binds	B1
binds	B2
binds	B3
binds	B4
binds	B5
binds	B6
binds	B7
binds	B8
binds	B9
binds	B10
binds	B11

Biological target: T4, mouse MAdCAM expressed on cells
Assay: cell binding
Remark: another data set of the same source

binding result	Binder
no binding	B12
no binding	B13
binds	B1
no binding	B2
no binding	B3
no binding	B14
binds	B4
binds	B5
binds	B6
no binding	B15
binds	B7
binds	B8
binds	B9
no binding	B10
binds	B11
